{
  "source": "patent US20230227508A1",
  "about": "“SPLIT INTEIN-BASED SELECTION FOR PEPTIDE BINDERS” (priority 2020, published 2023)",
  "biological_target": "σN-NpuN-Mdm2* bait fusion (residues 17-124 of Mdm2) (UniProt Q00987)",
  "sequence (Q00987 other isoform, or with tags, fused parts or gaps limits assumed)": "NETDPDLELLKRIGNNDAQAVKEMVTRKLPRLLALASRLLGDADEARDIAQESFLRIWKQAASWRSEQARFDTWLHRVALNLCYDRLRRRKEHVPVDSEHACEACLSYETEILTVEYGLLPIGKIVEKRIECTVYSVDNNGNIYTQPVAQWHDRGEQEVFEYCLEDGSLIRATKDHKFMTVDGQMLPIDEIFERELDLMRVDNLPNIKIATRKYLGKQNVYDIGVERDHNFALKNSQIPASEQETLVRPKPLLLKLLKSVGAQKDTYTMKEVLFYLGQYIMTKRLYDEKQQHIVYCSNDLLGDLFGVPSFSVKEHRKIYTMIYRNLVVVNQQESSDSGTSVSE",
  "test": "cell-based or functional assay",
  "data": [
    {"substance": "PMI-NpuC-σC peptide fusion (PMI, high affinity variant of residues 15-29 of p53)", "values": [
      {"measurement": "difference in output with against without bait and peptide when σN-NpuN was fully induced and the NpuC-σC fragment uninduced", "result": "> 200", "unit": "fold"}
    ]}
  ]
}
